In test [1] the target is T1, α4β1 (VLA-4) as used in the competition ELISAs (UniProt P13612 34-970; P05556 21-728). Kind of test: competition ELISA; integrin preincubated with test mAb, then murine HP1/2 as competing reagent. A general note: An ELISA detects its analyte on a solid surface through an enzyme-linked reagent.
For test [2], the target named is T1, α4β1 (VLA-4) as used in the competition …. Kind of test: competition ELISA; mixture of mouse HP1/2 with test mAb binding to integrin.
The target of test [3] is T2, CD64 (FcγRI) (UniProt P12314 16-288, limits assumed). Kind of test: solution competition SPR (Biacore); construct titrated into receptor, free receptor read on immobilized IgG1 MAb. As to the method: (§1) Binding to Fcγ receptors was analyzed using solution affinity surface plasmon resonance (ref Day E S, Cachero T G, Qian F, Sun Y, Wen D, Pelletier M, Hsu Y M, Whitty A. Selectivity of BAFF/BLyS and APRIL for binding to the TNF family receptors BAFFR/BR3 and BCMA. Biochemistry. 2005 Feb. 15; 44(6):1919-31.) The method utilizes conditions of so-called “mass-transport-limited” binding, in which the initial rate of ligand binding (protein binding to the senor chip) is proportional to the concentration of ligand in solution (ref BIApplications Handbook (1994) Chapter 6: Concentration measurement, pp 6-1-6-10, Pharmacia Biosensor AB). Under these conditions, binding of the soluble analyte (protein flowing over chip surface) to the immobilized protein on the chip is fast compared to the diffusion of the analyte into the dextran matrix on the chip surface. Therefore, the diffusion properties of the analyte and the concentration of analyte in solution flowing over the chip surface determine the rate at which analyte binds to the chip. In this experiment, the concentration of free Fc receptor in solution is determined by the initial rate of binding to a CM5 Biacore chip containing an immobilized IgG1 MAb. Into these Fc receptor solutions were titrated the stability engineered constructs (see Table 10.1 below). […] Initial binding rates were obtained from raw sensorgram data (FIG. 14). […] The results are shown in Table 10.1 and reported as the average of two titrations.
On the technique in general: In SPR one partner is held on a chip, and binding of the other changes the refractive index at the surface.

Test [4] addresses T3, CD16 (FcγRIIIa V158) (UniProt P08637 17-208).
T3 construct: V158 allotype as printed
As to the kind of experiment: solution competition SPR (Biacore). Here is the method:
as §1

The next test deals with T4, human C1q (human, UniProt P02745 23-245; P02746 28-253; P02747 29-245).
T4 construct: Bought protein; also called complement factor C1q; Sigma human C1q (C0660)
Kind of test: C1q ELISA. Here is the method: The C1q binding assay was be performed by coating 96 well Maxisorb ELISA plates (Nalge-Nunc Rochester, N.Y., USA) with 50 μl recombinant soluble human CD40 ligand at 10 ug/ml overnight at 4° C. in PBS. The wells were aspirated and washed three times with wash buffer (PBS, 0.05% Tween 20) and blocked for 1 hour with 200 µl/well of block/diluent buffer (0.1 M Na2HP04, pH 7.0, 1 M NaCl, 0.05% Tween 20, 1% gelatin). The antibodies were diluted in block/diluent buffer with 3-fold dilutions and incubated for 2 hours at room temperature.
After aspirating and washing as above, 50 pll/well of sheep anti C1q (Serotec AHP033), diluted 3, 560-fold in block/diluent buffer, were added. After incubation for 1 h at room temperature, the wells were aspirated and washed as above. 50 pll/well of donkey anti-sheep IgG HRP conjugate (Jackson ImmunoResearch 713-035-147) diluted to 1:10,000 in block/diluent were then added, and the wells incubated for 1 h at room temperature.
After aspirating and washing as above, 100 all TMB substrate (420 plM TMB, 0.004% H2O2 in 0.1 M sodium acetate/citric acid buffer, pH 4.9) were added and incubated for 2 min before the reaction was stopped with 100 ul 2 N sulfuric acid. The absorbance was read at 450 nm with a Softmax PRO instrument, and Softmax software was used to determine the relative binding affinity (C value) with a 4-parameter fit.

Test [5] addresses T2, CD64 (FcγRI). Kind of test: solution competition SPR (Biacore). As to the method:
as §1

Test [6] addresses T3, CD16 (FcγRIIIa V158). As to the kind of experiment: solution competition SPR (Biacore); construct titrated into receptor, free receptor read on immobilized IgG1 MAb. Here is the method: as §1

Numbering of substitutions follows the chain as printed. Names and notes keep the numbering of the source.

B1: H1L1 (antibody, V domains shown)
VH: EVQLVQSGAEVKKPGATVKISCKASGFNIKDTYMHWVQQAPGKGLEWMGRIDPASGDTKYDPKFQVRVTITADTSTDTAYMELSSLRSEDTAVYYCADGMWVSTGYALDFWGQGTLVTVSS
VL: SIVMTQSPDSLAVSLGERATINCKASQSVTNDVAWYQQKPGQPPKLLIYYASNRYTGVPDRFSGSGSGTDFTLTISSLQAEDVAVYFCQQDYSSPYTFGQGTKVEIK
notes: also called Design H1 / Design L1
B1: the figures for the IC50 in test [1] and in test [2] were 0.00167 µM and 0.00455 µM, respectively.

B2: H1L0 (antibody, V domains shown)
VH: B1 VH
VL: B1 VL with S1D, F87Y
notes: also called Design H1 / Design L0
Take B2: the values for the IC50 in test [1] and in test [2] were 0.00187 µM and 0.00446 µM, respectively.

B3: H1L2 (antibody, V domains shown)
VH: B1 VH
VL: B1 VL with S67Y
notes: also called Design H1 / Design L2
Take B3: the IC50 (usually the point on the concentration scale where inhibition reaches its midpoint) in test [1] was 0.0009 µM; in test [2], 0.00134 µM.

B4: H1L3 (antibody, V domains shown)
VH: B1 VH
VL: B1 VL with S67Y, L73F, V85T
notes: also called Design H1 / Design L3
B4: in test [1], the IC50 was found to be 0.00049 µM.

B5: CN578 (hu5c8 IgG1 T299K, aglycosylated) (antibody)
heavy: not shown
light: DIVLTQSPATLSVSPGERATISCRASQRVSSSTYSYMHWYQQKPGQPPKLLIKYASNLESGVPARFSGSGSGTDFTLTISSVEPEDFATYYCQHSWEIPPTFGGGTKLEIKRTVAAPSVFIFPPSDEQLKSGTASVVCLLNNFYPREAKVQWKVDNALQSGNSQESVTEQDSKDSTYSLSSTLTLSKADYEKHKVYACEVTHQGLSSPVTKSFNRGEC
modifications: N-terminal Q largely converted to pyroglutamic acid (mass spectrometry)
notes: Mass spectrometry assigns HC 1-447, which fits VH (118) + IgG1 CH1 (98) + Fc moiety (231); also called aglycosylated IgG1 A299K
As for B5, the IC50 with CD64 (FcγRI) [3] was 1420 µM; in the test with CD16 (FcγRIIIa V158) [4], 1320 µM.

B6: EAG2412 (hu5c8 S228P/N297Q, IgG4 CH1, IgG4 CH2, IgG1 CH3, aglycosylated) (antibody)
heavy: QVQLVQSGAEVVKPGASVKLSCKASGYIFTSYYMYWVKQAPGQGLEWIGEINPSNGDTNFNEKFKSKATLTVDKSASTAYMELSSLRSEDTAVYYCTRSDGRNDMDSWGQGTLVTVSSASTKGPSVFPLAPCSRSTSESTAALGCLVKDYFPEPVTVSWNSGALTSGVHTFPAVLQSSGLYSLSSVVTVPSSSLGTKTYTCNVDHKPSNTKVDKRVESKYGPPCPPCPAPEFLGGPSVFLFPPKPKDTLMISRTPEVTCVVVDVSQEDPEVQFNWYVDGVEVHNAKTKPREEQFQSTYRVVSVLTVLHQDWLNGKEYKCKVSNKGLPSSIEKTISKAKGQPREPQVYTLPPSRDELTKNQVSLTCLVKGFYPSDIAVEWESNGQPENNYKTTPPVLDSDGSFFLYSKLTVDKSRWQQGNVFSCSVMHEALHNHYTQKSLSLSP
light: B5 light
notes: also called N297Q IgG4-CH2/IgG1-CH3; copies: 2 + 2
In the case of B6, the binding result in the test with human C1q is given as “no binding”.

B7: EAG2300 (hu5c8 IgG4 chimeric hinge + IgG1 CH3, glycosylated) (antibody)
heavy: QVQLVQSGAEVVKPGASVKLSCKASGYIFTSYYMYWVKQAPGQGLEWIGEINPSNGDTNFNEKFKSKATLTVDKSASTAYMELSSLRSEDTAVYYCTRSDGRNDMDSWGQGTLVTVSSASTKGPSVFPLAPCSRSTSESTAALGCLVKDYFPEPVTVSWNSGALTSGVHTFPAVLQSSGLYSLSSVVTVPSSSLGTKTYTCNVDHKPSNTKVDKRVESKYGPPCPPCPAPPVAGPSVFLFPPKPKDTLMISRTPEVTCVVVDVSQEDPEVQFNWYVDGVEVHNAKTKPREEQFNSTYRVVSVLTVLHQDWLNGKEYKCKVSNKGLPSSIEKTISKAKGQPREPQVYTLPPSRDELTKNQVSLTCLVKGFYPSDIAVEWESNGQPENNYKTTPPVLDSDGSFFLYSKLTVDKSRWQQGNVFSCSVMHEALHNHYTQKSLSLSPG
light: B5 light
modifications: N-terminal Q largely converted to pyroglutamic acid; N-linked G0F/G1F/G2F glycans (mass spectrometry)
notes: also called pEAG2300; copies: 2 + 2
For the molecule B7, the IC50 with CD64 (FcγRI) [3] stood at 3020 µM.

B8: CN647 (hu5c8 IgG1 N297D, T299K) (antibody)
heavy: not shown
light: B5 light
For the molecule B8, the binding result with human C1q was “no binding”. In the test with CD64 (FcγRI) [5], the IC50 was found to be 4480 µM.

B9: EC326 (hu5c8 IgG4.P S228P, T307P, L309K, D399S, glycosylated) (antibody)
heavy: QVQLVQSGAEVVKPGASVKLSCKASGYIFTSYYMYWVKQAPGQGLEWIGEINPSNGDTNFNEKFKSKATLTVDKSASTAYMELSSLRSEDTAVYYCTRSDGRNDMDSWGQGTLVTVSSASTKGPSVFPLAPCSRSTSESTAALGCLVKDYFPEPVTVSWNSGALTSGVHTFPAVLQSSGLYSLSSVVTVPSSSLGTKTYTCNVDHKPSNTKVDKRVESKYGPPCPPCPAPEFLGGPSVFLFPPKPKDTLMISRTPEVTCVVVDVSQEDPEVQFNWYVDGVEVHNAKTKPREEQFNSTYRVVSVLPVKHQDWLNGKEYKCKVSNKGLPSSIEKTISKAKGQPREPQVYTLPPSQEEMTKNQVSLTCLVKGFYPSDIAVEWESNGQPENNYKTTPPVLSSDGSFFLYSRLTVDKSRWQEGNVFSCSVMHEALHNHYTQKSLSLSLG
light: B5 light
modifications: N-terminal Q largely converted to pyroglutamic acid; N-linked G0F/G1F/G2F glycans (mass spectrometry)
notes: copies: 2 + 2
Consider B9, for which the IC50 worked out at 7.56 µM in the test with CD64 (FcγRI) [3] and 380 µM with CD16 (FcγRIIIa V158) [6].

B10: CN646 (hu5c8 IgG1 N297S, T299K) (antibody)
heavy: not shown
light: B5 light
In the case of B10, the binding result with human C1q was “no binding”. The molecule further yielded an IC50 with CD64 (FcγRI) [5] of 3160 µM.

B11: EAG2296 (hu5c8 S228P/T299A, IgG4 CH2/IgG1 CH3 chimera, aglycosylated) (antibody)
heavy: B9 heavy with T297A, P305T, K307L, Q353R, E354D, M356L, S397D, R407K, E417Q, L443P
light: B5 light
notes: also called pEAG2296; copies: 2 + 2
As to B11, in the test with human C1q, the binding result is “no binding”. Moreover, the IC50 with CD16 (FcγRIIIa V158) [4] stood at 1320 µM.

B12: EC300 (hu5c8 IgG4.P S228P, T307P, glycosylated) (antibody)
heavy: not shown
light: B5 light
notes: copies: 2 + 2
B12: the IC50 in the test with CD64 (FcγRI) [3] worked out at 11.2 µM; with CD16 (FcγRIIIa V158) [6], 564 µM.

B13: CN645 (hu5c8 IgG1 N297P, T299K) (antibody)
heavy: not shown
light: B5 light
Regarding B13, the binding result in the test with human C1q is recorded as “no binding”. The molecule also gave an IC50 with CD64 (FcγRI) [5] of 4390 µM.

B14: EAG2390 (hu5c8 IgG1 T299P) (antibody)
heavy: not shown
light: B5 light
B14: the binding result with human C1q is “no binding”. The IC50 in the test with CD64 (FcγRI) [5] was 392 µM.

B15: Chimeric HP1/2 (antibody, human IgG1, V domains shown)
VH: EVQLQQSGAELVKPGASVKLSCTASGFNIKDTYMHWVKQRPEQGLEWIGRIDPASGDTKYDPKFQVKATITADTSSNTAWLQLSSLTSEDTAVYYCADGMWVSTGYALDFWGQGTTVTVSS
VL: SIVMTQTPKFLLVSAGDRVTITCKASQSVTNDVAWYQQKPGQSPKLLIYYASNRYTGVPDRFTGSGYGTDFTFTISTVQAEDLAVYFCQQDYSSPYTFGGGTKLEIK
notes: also called chimerized HP1/2 antibody; chimeric mAb
On to B15, for which the IC50 in test [1] amounted to 0.00106 µM; in test [2], 0.00164 µM.

Source of the values: patent publication US20210238289A1 (Biogen, published 2021).
